The values below are quoted from earlier work in PMC3046808.

This series concerns the target Gag (Human immunodeficiency virus 1) (UniProt O93182).

Chain of Gag (O93182 2-500): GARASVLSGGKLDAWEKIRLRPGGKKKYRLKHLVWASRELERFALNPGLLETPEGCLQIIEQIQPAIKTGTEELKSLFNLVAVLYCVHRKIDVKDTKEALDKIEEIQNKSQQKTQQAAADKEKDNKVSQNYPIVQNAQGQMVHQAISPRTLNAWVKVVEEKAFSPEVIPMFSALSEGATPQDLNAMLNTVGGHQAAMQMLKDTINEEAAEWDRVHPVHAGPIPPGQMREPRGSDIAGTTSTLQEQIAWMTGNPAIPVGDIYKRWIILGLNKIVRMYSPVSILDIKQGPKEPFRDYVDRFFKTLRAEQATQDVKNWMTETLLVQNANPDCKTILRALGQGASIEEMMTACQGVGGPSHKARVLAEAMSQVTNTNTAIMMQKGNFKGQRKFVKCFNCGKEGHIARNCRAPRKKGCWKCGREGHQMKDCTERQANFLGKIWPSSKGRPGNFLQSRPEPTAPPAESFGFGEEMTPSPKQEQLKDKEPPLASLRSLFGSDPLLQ

As to Gag (from UniProt O93182), the Kd (commonly the free concentration of one partner at which half of the binding sites on the other are occupied at equilibrium, for simple one-to-one binding) was 3.9 µM.
